Paper PMC9691722

Target: HCV1406 TCR
Assay: SPR; steady-state titration; TCR amine coupled to the sensor surface (1000-5000 RU), peptide/HLA-A2 injected at increasing concentrations, 5 μL/min, 25 °C, HBS-EP (10 mM HEPES, 150 mM NaCl, 3 mM EDTA, 0.005% surfactant P20, pH 7.4); 1:1 model; mutants globally fit alongside wild type with a shared RUmax

NS3/HLA-A2 with Arg65 of HLA-A2 mutated to alanine (from UniProt P61769 21-119) (peptide-MHC)
Kd: > 1500 µM
